In patent US20180155451A1 (published 2018):

T1: FcγRIIa H (human, UniProt P12318 34-217)
T1 construct: extracellular domain; also called FcgRIIa H; FcγRIIa type H; not shown: His tag attached to the C terminus
T1 sequence (looked up): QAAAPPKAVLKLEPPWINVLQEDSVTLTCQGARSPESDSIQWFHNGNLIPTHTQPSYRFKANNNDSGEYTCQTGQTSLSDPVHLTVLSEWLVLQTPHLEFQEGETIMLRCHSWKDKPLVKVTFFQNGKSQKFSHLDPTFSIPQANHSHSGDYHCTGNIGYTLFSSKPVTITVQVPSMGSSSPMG

T2: FcγRIIb (human, UniProt P31994 43-217)
T2 construct: extracellular domain; also called FcgRIIb; 2b; not shown: His tag attached to the C terminus
T2 sequence (looked up): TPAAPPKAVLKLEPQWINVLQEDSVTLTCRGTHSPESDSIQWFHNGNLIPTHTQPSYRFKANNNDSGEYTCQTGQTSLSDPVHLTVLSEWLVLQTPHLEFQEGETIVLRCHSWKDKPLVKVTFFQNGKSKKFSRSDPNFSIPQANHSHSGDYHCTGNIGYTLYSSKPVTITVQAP

B1: GpH7-A5/GpH7-B3 variant G236_02A/GpL16-k0 (antibody, human IgG1, kappa)
heavy 1: not shown
heavy 2: not shown
light: DIVMTQSPLSLPVTPGEPASISCQASESLVHSNRNTYLHWYLQKPGQSPQLLIYKVSNRFSGVPDRFSGSGSGTDFTLKISRVEAEDVGVYYCSQNTHVPPTFGQGTKVEIERTVAAPSVFIFPPSDEQLKSGTASVVCLLNNFYPREAKVQWKVDNALQSGNSQESVTEQDSKDSTYSLSSTLTLSKADYEKHKVYACEVTHQGLSSPVTKSFNRGEC
notes: Heterodimerized IgG1, mutation in the GpH7-B3 chain only; also called He Ab
B2: GpH7-A5/GpH7-B3 variant D265_02A/GpL16-k0 (antibody, human IgG1, kappa)
heavy 1: not shown
heavy 2: not shown
light: DIVMTQSPLSLPVTPGEPASISCQASESLVHSNRNTYLHWYLQKPGQSPQLLIYKVSNRFSGVPDRFSGSGSGTDFTLKISRVEAEDVGVYYCSQNTHVPPTFGQGTKVEIERTVAAPSVFIFPPSDEQLKSGTASVVCLLNNFYPREAKVQWKVDNALQSGNSQESVTEQDSKDSTYSLSSTLTLSKADYEKHKVYACEVTHQGLSSPVTKSFNRGEC
notes: as for B1
B3: GpH7-A5/GpH7-B3 variant D265_03V/GpL16-k0 (antibody, human IgG1, kappa)
heavy 1: not shown
heavy 2: not shown
light: DIVMTQSPLSLPVTPGEPASISCQASESLVHSNRNTYLHWYLQKPGQSPQLLIYKVSNRFSGVPDRFSGSGSGTDFTLKISRVEAEDVGVYYCSQNTHVPPTFGQGTKVEIERTVAAPSVFIFPPSDEQLKSGTASVVCLLNNFYPREAKVQWKVDNALQSGNSQESVTEQDSKDSTYSLSSTLTLSKADYEKHKVYACEVTHQGLSSPVTKSFNRGEC
notes: as for B1
B4: GpH7-A5/GpH7-B3 variant G236_03V/GpL16-k0 (antibody, human IgG1, kappa)
heavy 1: not shown
heavy 2: not shown
light: DIVMTQSPLSLPVTPGEPASISCQASESLVHSNRNTYLHWYLQKPGQSPQLLIYKVSNRFSGVPDRFSGSGSGTDFTLKISRVEAEDVGVYYCSQNTHVPPTFGQGTKVEIERTVAAPSVFIFPPSDEQLKSGTASVVCLLNNFYPREAKVQWKVDNALQSGNSQESVTEQDSKDSTYSLSSTLTLSKADYEKHKVYACEVTHQGLSSPVTKSFNRGEC
notes: as for B1
B5: GpH7-A5/GpH7-B3 variant G236_04F/GpL16-k0 (antibody, human IgG1, kappa)
heavy 1: not shown
heavy 2: not shown
light: DIVMTQSPLSLPVTPGEPASISCQASESLVHSNRNTYLHWYLQKPGQSPQLLIYKVSNRFSGVPDRFSGSGSGTDFTLKISRVEAEDVGVYYCSQNTHVPPTFGQGTKVEIERTVAAPSVFIFPPSDEQLKSGTASVVCLLNNFYPREAKVQWKVDNALQSGNSQESVTEQDSKDSTYSLSSTLTLSKADYEKHKVYACEVTHQGLSSPVTKSFNRGEC
notes: as for B1
B6: GpH7-A5/GpH7-B3 variant G236_05P/GpL16-k0 (antibody, human IgG1, kappa)
heavy 1: not shown
heavy 2: not shown
light: DIVMTQSPLSLPVTPGEPASISCQASESLVHSNRNTYLHWYLQKPGQSPQLLIYKVSNRFSGVPDRFSGSGSGTDFTLKISRVEAEDVGVYYCSQNTHVPPTFGQGTKVEIERTVAAPSVFIFPPSDEQLKSGTASVVCLLNNFYPREAKVQWKVDNALQSGNSQESVTEQDSKDSTYSLSSTLTLSKADYEKHKVYACEVTHQGLSSPVTKSFNRGEC
notes: as for B1
B7: GpH7-A5/GpH7-B3 variant G236_06M/GpL16-k0 (antibody, human IgG1, kappa)
heavy 1: not shown
heavy 2: not shown
light: DIVMTQSPLSLPVTPGEPASISCQASESLVHSNRNTYLHWYLQKPGQSPQLLIYKVSNRFSGVPDRFSGSGSGTDFTLKISRVEAEDVGVYYCSQNTHVPPTFGQGTKVEIERTVAAPSVFIFPPSDEQLKSGTASVVCLLNNFYPREAKVQWKVDNALQSGNSQESVTEQDSKDSTYSLSSTLTLSKADYEKHKVYACEVTHQGLSSPVTKSFNRGEC
notes: as for B1
B8: GpH7-A5/GpH7-B3 variant G236_07I/GpL16-k0 (antibody, human IgG1, kappa)
heavy 1: not shown
heavy 2: not shown
light: DIVMTQSPLSLPVTPGEPASISCQASESLVHSNRNTYLHWYLQKPGQSPQLLIYKVSNRFSGVPDRFSGSGSGTDFTLKISRVEAEDVGVYYCSQNTHVPPTFGQGTKVEIERTVAAPSVFIFPPSDEQLKSGTASVVCLLNNFYPREAKVQWKVDNALQSGNSQESVTEQDSKDSTYSLSSTLTLSKADYEKHKVYACEVTHQGLSSPVTKSFNRGEC
notes: as for B1
B9: GpH7-A5/GpH7-B3 variant G236_08L/GpL16-k0 (antibody, human IgG1, kappa)
heavy 1: not shown
heavy 2: not shown
light: DIVMTQSPLSLPVTPGEPASISCQASESLVHSNRNTYLHWYLQKPGQSPQLLIYKVSNRFSGVPDRFSGSGSGTDFTLKISRVEAEDVGVYYCSQNTHVPPTFGQGTKVEIERTVAAPSVFIFPPSDEQLKSGTASVVCLLNNFYPREAKVQWKVDNALQSGNSQESVTEQDSKDSTYSLSSTLTLSKADYEKHKVYACEVTHQGLSSPVTKSFNRGEC
notes: as for B1

Experiments:
[1] = biological target: T1, FcγRIIa H; assay: SPR (Biacore), antibody captured, FcγR as analyte; binding relative to GpH7-A5/GpH7-B3/GpL16-k0 = 100
[2] = biological target: T2, FcγRIIb; assay: as above
[3] = biological target: T1, FcγRIIa H; assay: ratio of He/Con_2aH to He/Con_2b (relative SPR binding to FcγRIIa H over FcγRIIb)

Binder | He/Con_2aH [1] [control = 100] | He/Con_2b [2] [control = 100] | He_2aH/2b (IIaH/IIb) [3]
B1 | 139 | 96.5 | 1.44
B2 | 31.3 | 19.9 | 1.58
B3 | 4.6 | 3.2 | 1.42
B4 | 119 | 35.3 | 3.39
B5 | 118 | 39.3 | 3
B6 | 63.5 | 19 | 3.34
B7 | 85.7 | 45.5 | 1.88
B8 | 115 | 31 | 3.72
B9 | 75.8 | 26.8 | 2.83
